Laboratory results: patent US20160122387A1, “Angiotensin Peptide and Pharmaceutical Compositions for Disease Treatment” (UNIVERSIDADE FEDERAL DE MINAS GERAIS - UFMG, priority 2012, published 2016)
Square brackets hold non-standard residues; d marks the D form. Ends that are not written are not given here.

Assays:
Mas receptor [1] = target: T1, Mas receptor (Rattus norvegicus, UniProt P12526); test: Vasorelaxation in SHR aortic rings in the presence of Mas receptor antagonists A-779 and D-Pro
T1 construct: from tissue; host or cells: SHR rat thoracic aorta rings and mesenteric artery rings
T1 sequence (P12526 1-324): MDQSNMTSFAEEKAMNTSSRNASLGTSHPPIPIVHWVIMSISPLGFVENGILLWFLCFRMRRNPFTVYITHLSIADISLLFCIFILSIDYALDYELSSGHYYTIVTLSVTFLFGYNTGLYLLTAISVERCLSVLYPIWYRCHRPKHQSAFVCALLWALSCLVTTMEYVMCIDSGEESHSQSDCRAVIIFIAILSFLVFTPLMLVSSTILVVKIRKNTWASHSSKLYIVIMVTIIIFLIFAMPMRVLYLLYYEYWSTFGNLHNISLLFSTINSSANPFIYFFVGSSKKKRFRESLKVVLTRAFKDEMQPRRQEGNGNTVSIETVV
Description: Three- to four-mm rings of the descending thoracic aorta in spontaneously hypertensive rats (SHR), free from adipose and connective tissue, were maintained in a gasified solution (95% 02 and 5% CO2) of Krebs-Henseleit, at 37° C. under a tension of 1.0 g for 1 hour for stabilization. The presence of functional endothelium was assessed by the ability of acetylcholine [ACh] (10 μmol/L) to induce more than 70% relaxation of vessels pre-contracted with phenylephrine (0.1 μmol/L). The mechanical activity, recorded isometrically by a force transducer, was fed into a recorder-amplifier and a computer equipped with an analog-digital converter board, using CVMS data acquisition/recording software.
The SHR vessels were pre-contracted to the same voltage level (approximately 1.0 g tension) at the submaximal concentration of phenylephrine (0.1 μmol/L). Mas receptor antagonists, A-779 and D-Pro, were added to […] immediately before adding the arg0-Ang-(1-7) in increasing cumulative concentrations. Results are presented as mean±SEM. One-way analysis of variance (ANOVA) with the Newman-Keuls post-test for multiple comparisons was used to compare the concentration response curves obtained in the aortic rings. The result was expressed as the percentage of decrease in peak concentration induced by phenylephrine. All statistical analyses were considered significant when p<0.05.

Mas receptor [2] = target: T1, Mas receptor; test: Vasorelaxation in SHR mesenteric rings in the presence of Mas receptor antagonist A-779
Description: Rings (2.0 mm) of mesenteric artery (2nd and/or 3rd branches) in spontaneously hypertensive rats (SHR), free from adipose and connective tissue, were maintained in a gasified solution (95% 02 and 5% CO2) of Krebs-Hanseleit, at 37° C. After a 15 minute stabilization period, the artery was stretched, gradually, to a resting tension considered optimal with respect to its inner diameter. For this, in each arterial segment, the voltage/diameter was calculated by internal circumference which corresponds to a transmural pressure of 100 mmHg for a relaxed vessel in situ (IC100) using software specific for standardization resistance arteries. For the experiments, the arteries were maintained with an internal circumference, IC1, calculated using the formula IC1=0.90×IC100, in which the development of strength is maximum, as previously described by Mulvany and Halpern (1977). The effective luminal diameter was determined according to the I1=IC1/π equation. […]
The presence of functional endothelium was assessed by the ability of acetylcholine [ACh] […] The mechanical activity was recorded isometrically using a myograph, which was connected to a system for data acquisition and to a computer.
The SHR vessels were pre-contracted with sub-maximal concentrations of phenylephrine (0.1 μmol/L). […] The result was expressed as a percentage of decrease in peak concentration induced by phenylephrine. […]

rat receptor Mas (rat) = rat receptor Mas (rat) (UniProt P12526); test: cell-based or functional assay

| Emax of vasorelaxation by arg0-Ang-(1-7) in SHR mesenteric artery rings in the presence of A-779 (rat receptor Mas (rat)) [%] | Emax of vasorelaxation by arg0-Ang-(1-7) in SHR rat aortic rings in the presence of A-779 (rat receptor Mas (rat)) [%] | Emax of vasorelaxation by arg0-Ang-(1-7) in SHR rat aortic rings in the presence of D-Pro (rat receptor Mas (rat)) [%] | Substance | antagonist effect on the vasorelaxation produced by arg0-Ang-(1-7) (Mas receptor [1]) | antagonist effect on the vasorelaxation produced by arg0-Ang-(1-7) (Mas receptor [2]) |
| --- | --- | --- | --- | --- | --- |
|  |  |  | Asp-Arg-Val-Tyr-Ile-His-D-Ala (DRVYIH[dA]) [A-779] | blocked the vasorelaxant effect of the peptide | blocked the vasorelaxant effect of the peptide |
| 14.1 | 14 | 11 | arg0-angiotensin-(1-7) (peptide) |  |  |
